We go through 94 variants from the supplement of paper PMC10567573.

To fix the notation:
B1: ANKRD17 (parent)
chain: EVLRRLTSSVSCALDEAAAALTRM
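Note: lentivirally expressed fusions sorted by FACS into six bins by GFP to DsRed ratio, PSI derived from sequencing read proportions per bin multiplied by bin number.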

The variants in this data set derive from B1. The experiment in a line: protein stability index of a GFP-peptide fusion (GPS, HEK-293T) (PSI 1-6); higher = more stable. Particulars: c terminus: a fixed tail appended.
On to ERLRRLTSSVSCALDEAAAALTRM [V2R], for which the protein stability index worked out at 2.6.

As to EQLRRLTSSVSCALDEAAAALTRM [V2Q], the protein stability index was determined as 2.56. Take EHLRRLTSSVSCALDEAAAALTRM [V2H]: the protein stability index is 3.64. The value for EPLRRLTSSVSCALDEAAAALTRM [V2P] was 2.43; that for EALRRLTSSVSCALDEAAAALTRM [V2A] was 2.96; that for EVLRRLTSSVSSALDEAAAALTRM [C12S] was 2.69. The value for EVLRRLTSSVSLALDEAAAALTRM [C12L] was 2.75; that for EVLRRLTSSVSFALDEAAAALTRM [C12F] was 1.78; that for EVLRRLTSSVSKALDEAAAALTRM [C12K] was 2.73. The value for EVLRRLTSSVSPALDEAAAALTRM [C12P] was 1.91. As to EVLRRLTSSVSIALDEAAAALTRM [C12I], the protein stability index amounted to 1.71. The value for EVLRRLTSSVSQALDEAAAALTRM [C12Q] was 2.41; that for EVLRRLTSSVSAALDEAAAALTRM [C12A] was 3.05.

With EVLRRLTSSVSHALDEAAAALTRM [C12H], the protein stability index is 4.25. As for EVLRRLTSSVSEALDEAAAALTRM [C12E], the protein stability index amounted to 3. EVLRRLTSSVSGALDEAAAALTRM [C12G]: the protein stability index came out at 3.18. Regarding EVLRRLTSSVSNALDEAAAALTRM [C12N], the protein stability index was 3.93. The value for EVLRRLTSSVSTALDEAAAALTRM [C12T] was 2.97; that for EVLRRLTSSVSMALDEAAAALTRM [C12M] was 1.74; that for EVLRRLTSSVFCALDEAAAALTRM [S11F] was 1.12. To EVLRRLTSSVDCALDEAAAALTRM [S11D] belongs 2.18. For the variant EVLRRLTSSVECALDEAAAALTRM [S11E], the protein stability index was 1.92. EVLRRLTSSVGCALDEAAAALTRM [S11G]: the protein stability index was determined as 1.03. To EVLRRLTSSVPCALDEAAAALTRM [S11P] belongs 2.79; to EVLRRLTSSVVCALDEAAAALTRM [S11V], 1.35; to EVLRRLTSSVICALDEAAAALTRM [S11I], 2.1.

As for EVLRRLTSSVACALDEAAAALTRM [S11A], the protein stability index turned out to be 1.43.

With EVLRRLTSSVNCALDEAAAALTRM [S11N], the protein stability index was found to be 2.65. Take EVLRRLTSSVYCALDEAAAALTRM [S11Y]: the protein stability index was found to be 2.26. Regarding EVLRRLTSSVQCALDEAAAALTRM [S11Q], the protein stability index was 1.18. The value for EVLRRLTSSVMCALDEAAAALTRM [S11M] was 2.22; that for EVLRRLTSSVTCALDEAAAALTRM [S11T] was 2.42; that for EVLRRLTSNVSCALDEAAAALTRM [S9N] was 1.81. On to EVLRRLTSGVSCALDEAAAALTRM [S9G], for which the protein stability index is 1.64. On to EVLRRLTSAVSCALDEAAAALTRM [S9A], for which the protein stability index turned out to be 2.11. To EVLRRLTSDVSCALDEAAAALTRM [S9D] belongs 1.65; to EVLRRLTSQVSCALDEAAAALTRM [S9Q], 2.21; to EVLRRLTSIVSCALDEAAAALTRM [S9I], 1.97.

In the case of EVLRRLTSPVSCALDEAAAALTRM [S9P], the protein stability index was 1.94.

In the case of EVLRRLTSEVSCALDEAAAALTRM [S9E], the protein stability index was 1.47. Turning to EVLRRLTSCVSCALDEAAAALTRM [S9C], the protein stability index is 1.87. The value for EVLRRLTSTVSCALDEAAAALTRM [S9T] was 1.66. The value for EVLRRLTSFVSCALDEAAAALTRM [S9F] was 2.38; that for EVLRRLTSRVSCALDEAAAALTRM [S9R] was 2.69. As to EVLRRLTSWVSCALDEAAAALTRM [S9W], the protein stability index is 2.63. In the case of EVLRRLTSMVSCALDEAAAALTRM [S9M], the protein stability index was 2.49. Take EVLRRLTSYVSCALDEAAAALTRM [S9Y]: the protein stability index was 1.58. As to EVLRFLTSSVSCALDEAAAALTRM [R5F], the protein stability index is 1.68. To EVLRLLTSSVSCALDEAAAALTRM [R5L] belongs 1.59; to EVLRHLTSSVSCALDEAAAALTRM [R5H], 2.23. As for EVLRWLTSSVSCALDEAAAALTRM [R5W], the protein stability index worked out at 1.02. Take EVLRSLTSSVSCALDEAAAALTRM [R5S]: the protein stability index is 2.18. For the variant EVLRPLTSSVSCALDEAAAALTRM [R5P], the protein stability index is 2.02. To EVLRKLTSSVSCALDEAAAALTRM [R5K] belongs 4.55. To EVLRTLTSSVSCALDEAAAALTRM [R5T] belongs 1; to EVLRMLTSSVSCALDEAAAALTRM [R5M], 2.05; to EVLRGLTSSVSCALDEAAAALTRM [R5G], 2.1. With EVLRNLTSSVSCALDEAAAALTRM [R5N], the protein stability index came to 2.35. To EVLRDLTSSVSCALDEAAAALTRM [R5D] belongs 3.56; to EVLRRLASSVSCALDEAAAALTRM [T7A], 2.96; to EVLRRLMSSVSCALDEAAAALTRM [T7M], 2.05. To EVLRRLKSSVSCALDEAAAALTRM [T7K] belongs 3.26; to EVLRRLWSSVSCALDEAAAALTRM [T7W], 1.98; to EVLRRLDSSVSCALDEAAAALTRM [T7D], 1.81. Regarding EVLRRLFSSVSCALDEAAAALTRM [T7F], the protein stability index was found to be 1.66.

On to EVLRRLGSSVSCALDEAAAALTRM [T7G], for which the protein stability index amounted to 2.27.

In the case of EVLRRLPSSVSCALDEAAAALTRM [T7P], the protein stability index stood at 2.52. To EVLRRLSSSVSCALDEAAAALTRM [T7S] belongs 2.09. To EVLRRLYSSVSCALDEAAAALTRM [T7Y] belongs 2.2; to EVLRRLHSSVSCALDEAAAALTRM [T7H], 1.17; to EVLRRLISSVSCALDEAAAALTRM [T7I], 2.06. The value for EVLRRLLSSVSCALDEAAAALTRM [T7L] was 2.95; that for EVLRRLQSSVSCALDEAAAALTRM [T7Q] was 2.6.

On to EVLRRLVSSVSCALDEAAAALTRM [T7V], for which the protein stability index was determined as 3. Regarding EVLRRLNSSVSCALDEAAAALTRM [T7N], the protein stability index came out at 1.16. Turning to EVLRRLRSSVSCALDEAAAALTRM [T7R], the protein stability index turned out to be 3. To EVLRRLESSVSCALDEAAAALTRM [T7E] belongs 2.81; to EVLRRLCSSVSCALDEAAAALTRM [T7C], 2.05; to EVLRRPTSSVSCALDEAAAALTRM [L6P], 2.38. The value for EVLRRITSSVSCALDEAAAALTRM [L6I] was 1.67. To EVLRRMTSSVSCALDEAAAALTRM [L6M] belongs 1.76. Regarding EVLRRTTSSVSCALDEAAAALTRM [L6T], the protein stability index amounted to 2.32. In the case of EVLRRNTSSVSCALDEAAAALTRM [L6N], the protein stability index was 2.07. To EVLRRSTSSVSCALDEAAAALTRM [L6S] belongs 1.73.

Regarding EVLRRFTSSVSCALDEAAAALTRM [L6F], the protein stability index was determined as 1.9. The value for EVLRRYTSSVSCALDEAAAALTRM [L6Y] was 2.28.

Take EVLRRATSSVSCALDEAAAALTRM [L6A]: the protein stability index was 2.11. To EVLRRKTSSVSCALDEAAAALTRM [L6K] belongs 2.17; to EVLRRWTSSVSCALDEAAAALTRM [L6W], 2. With EVLRRHTSSVSCALDEAAAALTRM [L6H], the protein stability index was 1.66. As to EVLRRCTSSVSCALDEAAAALTRM [L6C], the protein stability index turned out to be 2.38. The value for EVLRRGTSSVSCALDEAAAALTRM [L6G] was 1.42; that for EVLRRQTSSVSCALDEAAAALTRM [L6Q] was 2.95; that for EVLRRETSSVSCALDEAAAALTRM [L6E] was 3.9.
